From FireProtDB (doi:10.1021/acs.biochem.7b00571)

B1: Salicylic acid-binding protein 2, Q6RYA0 (parent)
chain: MKEGKHFVLVHGACHGGWSWYKLKPLLEAAGHKVTALDLAASGTDLRKIEELRTLYDYTLPLMELMESLSADEKVILVGHSLGGMNLGLAMEKYPQKIYAAVFLAAFMPDSVHNSSFVLEQYNERTPAENWLDTQFLPYGSPEEPLTSMFFGPKFLAHKLYQLCSPEDLALASSLVRPSSLFMEDLSKAKYFTDERFGSVKRVYIVCTEDKGIPEEFQRWQIDNIGVTEAIEIKGADHMAMLCEPQKLCASLLEIAHKYN

Variants of: B1
Details: Nicotiana tabacum; pH 7.2; 4 °C; Urea; Fluorescence; BES; reversible: yes; structure 1Y7I; whole UniProt chain shown
For T228S, the “denaturant midpoint (higher = more stable)” value (from here on “denaturant midpoint”) was 1.9 M. For A230V, the “denaturant midpoint” value was 2.6 M. In the case of I231R, the “denaturant midpoint” value is reported as 1.9 M. With C249A the “denaturant midpoint” value was 2.1 M. With E215P the “denaturant midpoint” value was 3.2 M. For G226P, the “denaturant midpoint” value was 1.6 M. In the case of F197Y, the “denaturant midpoint” value is reported as 2.2 M. With A250K the “denaturant midpoint” value was 2 M. In the case of E244K, the “denaturant midpoint” value is reported as 3 M. With Q221M the “denaturant midpoint” value was 2.7 M. For K247E, the “denaturant midpoint” value was 1.1 M. With V227P the “denaturant midpoint” value was 1.8 M. In the case of G212C, the “denaturant midpoint” value is reported as 3.5 M. For I225T, the “denaturant midpoint” value was 1.5 M. With S251V the “denaturant midpoint” value was 2.2 M. In the case of A189S, the “denaturant midpoint” value is reported as 2.5 M. For C243S, the “denaturant midpoint” value was 2.1 M.
